The results in this text go back to patent US20240269318A1.

Common to all, as to details: remark: other sources report otherwise
The target of assay [1] is T1, recombinant human alpha-synuclein aggregates (ab218819) (human), P37840. Put plainly: ELISA on AS aggregates; antibody pre-heated 1 hr at 65 °C, stored overnight at 4 °C, measured the next day.
Assay [2] addresses T1, recombinant human alpha-synuclein …. Put plainly: ELISA on AS aggregates; antibody pre-heated 1 hr at 65 °C, measured immediately. A general note: An ELISA detects its analyte on a solid surface through an enzyme-linked reagent.
Assay [3] shares this target. Put plainly: super-resolution imaging in differentiated SH-SY5Y cells loaded with AS aggregates; SynO4 delivered by TF-liposomes.
Assay [4] shares this target. The experiment in a line: super-resolution microscopy; Cy3-SynO4 and Alexa Fluor 488-AS aggregates in differentiated SH-SY5Y cells.

B1: SynO4 antibody (Creative Biolabs, USA) (antibody)
chain 1: EVQLVESGGGLVQPKGSLKLSCAASGFTFNTYAMHWVRQAPGKGLEWVARIRSKSSNYATYYADSVKDRFTISRDDSQSMLYLQMNNLKTEDTAMYYCVRPLKWYFDVWGTGTTVTVSS
chain 2: QIVLTQSPAILSASPGEKVTMTCSASSTVNYMHWYQQKSGTSPKIWIYDTSKLASGVPARFSGSGSWTSYSLTISSMEAEDAATYYCQQWNSNPPTFGAGTKLELK
On to B1, for which the maximal activity in assay [1] turned out to be 44%; in assay [2], 22%. In assay [3], the detection between antibody and aggregates was greater than 80%. Moreover, the colocalization in assay [4] is 75%.
